Laboratory results from the nanobody polyreactivity screen of Harvey et al. (2022).

Assay: yeast display, Sf9 membrane polyspecificity reagent, FACS + sequencing; frameworks hold sequencing errors
Procedure, shortened: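 Sorting gates, low and high (top ~1%), were placed on anti-HA fluorescence to track expression and on streptavidin fluorescence to track reagent binding. A clone's polyreactivity label is taken from the gate it came out of. The reagent was 10% biotinylated, detergent-solubilized Sf9 membrane, applied for 1 hour at 4 °C to galactose-induced yeast display cells.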

Sequence	polyreactivity (PSR sort gate)
EEELVESAVRLVQAGVSLRLSCAASAIIYAYNAMGWYRQAPGKESELVAAISSGDDTNYADSVKGRFTISRDNAKNTVYLQLNSLKPEDTAVYYCAAEVWTAFTHGSYWTVVDYDYWGQGTQVTVST	low polyreactivity
EEELVESGGGLVQAGGSSLRLSCAASGRTFSTNVMGWYRQAPGKERELVAAINRSGGSTYYADSVKGRFTISRDNAKNTVYLQMNSLKPEDTAVYYCAKRDGVGNHEFDYWGQGTQVTVSS	low polyreactivity
EVHLVESGGGLVQPGGSLRLSCAASGDIYSRYRMGWYRQAPGKGREFVAAISGGSSTNYADSVKGRFTISRDNSKNTVYLQMNSLRAVDTAVSYCAAYKIDSDPRVYWGQGTQVTVSS	low polyreactivity
EVQLEESGGGLVQAGGSLRLSCAASGSTFYQYALGWSRQAPGKERELVAAITTIGGRTYYADSVKGRFTISRDNAKNTVYLQMNSLNPEDTAVYYCAAGYRAWEPYGHYGYWGQGTQVTVSS	high polyreactivity
EVQLEESGGGLVQAGGSLRLSCPASGLIFGLYAMGWYRQAPGKERELVAAISYRTDSTYADSVKGRFTISRDNAKNTFYLQKNSLIPEDTAVYYCAADLRVSVGYYYWGQGTQVTVSS	low polyreactivity
EVQLVESGAGLVQAVGSLRLSCYASGFIFGYNAMGWYRQAHGKERELVAAISSGGGNTYYADSVKGRFTISRDNAKNTVYLQMNSLKPEDTAVYYCAAPDPRRPRRGDSWGQGTQVTVSS	low polyreactivity
EVQLVESGGGLVQAGGSLRLICAASGRTFQNYAMGWYRQAPGKERELVADITSGGSTYADSVKGRFTISRDNAKNTVYLQMNSLKPEDTAVYYCNADRTYPEPAEYYYWGQGTQVTVSS	low polyreactivity
EVQLVESGGGLVQAGGSLRLSCAASGRTFSYYAMGCYRQAPGKERELVAAISGGGSTNYADSVKGRFTISRDNAKYTVYLQMNSLKPEDTAVYYCAVGGFLRYRISLGKSYYYWGQGTQVTVSS	high polyreactivity
EVQLVESGGGLVQAGGSLRLSCAASGSTFRYNAMGWSRQAPGKEWEFVATISWTTGSTYYADSVKGRFTISRDNAKNTVYLQMNCLNAEDTAVYYCAAVASLFSDFRDYDYWGQGTQVTVSS	low polyreactivity
EVQLVESGGGLVQAGGSLRLTCAASGSIFPVYAMGWYRQAPGKERELVASISNGGTTYYADSVKGRFTISRDNAKNTVYLQMKSLKAEDTAVYYCAATGWAYGYGYGYWGQGSQVTVSS	low polyreactivity
EVQLVESGGGLVQPGGSLRLSCAASGYIYSRYRMGWYRQAPGKGREFVAAISGGSSTNYADSVKGRFTISRDNSKYTVYLQMNSLRAEDTAVYYCAAFKIDSDPRVYWGQGTQVTVSS	low polyreactivity
EVQLVESGGGLVQPGGSLRLSCAASGYIYSRYRMGWYRQAPGKGREFVAAISGGSSTNYADSVKGRFTSSRDNSKNTVYLQMNSLRAEDTAVYYCAAYKIDSDQRVYWGQGTQVTVSS	low polyreactivity
EVQQVESGGGLVQPGGSLRLSCAASGYIYSRYRMGWCRQAPGKGREFVAAISGGSSTNYADSVKGRFTISRDNSKITVYLQMKSLRAEDTAVYYCAAYMIDSDPRVFWGQGTQVNVSS	low polyreactivity
EVQVVESGGGLVQAGGSLRLSCAASGRIFLRNAMGWYRQAPGKEWEFVATITSGGSTFYADSVKGRFTISRDNAKNTFYLQMNRLKPEDTAVYYCAAPSYYTPFHTPNYCWGQVTQVTVSS	low polyreactivity
HAQLQESGGGLVQAGGSLRRSCAASGSMFRFSGMGWYRRAPGKERELVASIGFGSITYYADRVKGRFTISRDNANHTVYLQMNTLKPEDTAVYYCAVQVQDESWLDYWGQGTQVTVSC	low polyreactivity
HAQLQESGGGLVQAGGSLRRSFAASGSIFRFSGMGWYRRAPGKERELVASIGFGSITYYADRVKGRFTISRDNANNTVYLQMNSLKPEDTAVYYCAVQVQDESWLDYWGQGTQVTVSC	low polyreactivity
HEQRVESCGGLVQARCSLRLSCAASGGTFRYNTMGWYRQAPGKERDLVADISSDGRTYYADSVKGRFTISRDNAKTSVYLQMNSLKPEDTAVDYCAVDRFTPDVYEYGYWGQGTQVTVSS	high polyreactivity
HLQLVESGGGLVQAGGSLRLSCAASGSIFYYNAMGWYRQAPGKERELVASIRANGGNTYYADSVKGRFTISRDNAKNTVYLQMNSLKPEETAVYYCAKESRYAHLYYYWGQGTQVTVSS	low polyreactivity
HVELVDSGGGLVQAGGSLRLSCAASGSIFTDNTRGWFRQAPAKDRELVASISSGGRTYYADSVKGRFTISRDNAKNTVYLQMNSLKPEDTAVSYCAVSCWWKHNYWGQGTQVTVSS	high polyreactivity
HVPLVESGGGIVQAGGRMRLSCAASGSTFTEYAMGGYRQAPGKQREWVAGISSDGSTKYADSVKGRFTISRDNAKNTVYLQMNSLNPEDSAVYYCNKDQSDAKFDYWGQGTQVTVSS	low polyreactivity
HVQLQESGGGLVQACGSQRLSCAASGSISEGQDMGRYRLAPGKEREFVAGIAPGATTYYADSVKGRFTISRDNAKITVYLQMNSLIPEDNAVYYCAARSVTETDHDYWGQGTQVTVSS	low polyreactivity
HVQLQESGGGLVQAGGSLRLSCAASGSIFQATYMGWYRQAPGKEREFVASITYGSITKYADSVNGRFTIGRDNAKDTLYLQMNSLKPEDTAVYYCAVDRHYIPAFHYWGQGTQVTVSS	low polyreactivity

Sequence	polyreactivity (PSR sort gate)
HVQLQETGGGLVQAGGSLRLSCAASGSIFQATYMGWYRQAPGKEREFVASITYGSITIYADSVKGRFTIGRDNAKDTLYLQMNSLKPEDTAVYYCAVDRHYIPAFHYWGQGTQVTVSS	low polyreactivity
HVQLVDSGGGLVQAGGSLRLSCAASGYTFKYNTMGWYRQAPGKERDLVAAITRSGGSTYYADSVKGRFTISRDNAKNTVYLQMNSLKPEDTAVYYCAARAAYKQPVSFDYWGQGTQVTVSS	high polyreactivity
HVQLVESAGGLVQAGGSLRVSCAASGRTFEDNAMGWSRPAPGKERELVAAISSAGSTNYADSVKGRFTISRDNAKNTVYLQMTSLKPEDTAVYYCNATVYWPYDWRTSDYWGHGTQVTVSS	low polyreactivity
HVQLVESGGALVQAGGSLRLSCAASGYIFYYYAMGWYRQAPGKERELVAAITFSGGSTYYADSVKGRFTISRDIAKNTVYLQMNSLKPEDTAGYYCDKVELRDAAELGSDEYDYWGQGTKVTVSS	low polyreactivity
HVQLVESGGGIVQAGGSLRLSCAASGSTYVTNDMGSYRQAPGKERELVAAIYSGTSTNYADSVKGRFTISRDNAKNTVYLQMNSLKPEDTAVYYCAADSLKRYDYWGQGTQVSVSS	low polyreactivity
HVQLVESGGGIVQAGGSLRLSSAASGSTFGSNAMGWYRQAPGKERELVAAITYSGGRTYYADSVKGRFTISRDNAKNTVYLQMNSLKPEDTAVYYCAATFGFFYYQYDYWGQGTQVTVSS	low polyreactivity
HVQLVESGGGLVEAGGSLRLSCAASGYISYVNAMGWYRQAPGKERELVATISIRGGRTYYADSVKGRFTISRDNAKNTVYLQMNSLKPEDTAVYYCNVRRAYYRRGPYYSTYYYWGQGTQVTVSS	high polyreactivity
HVQLVESGGGLVHAGGSLRLRCAASGFTFTTYAMGWYRQAPWKEMELVARISRRSGSTYYADSVKGRFTLSRDNAKNTVYLQMNSLKPDDTAVYYCNADVDRSTTIFDYWGQGTQVTVSS	high polyreactivity
HVQLVESGGGLVHAGGSLRLSCAASGSILPKYAMGWYRQEPGKQRLLVATITWSGSSTYYADSVKGRFTISRDNAQNTVYLQMNSLKPEDTAVYYCAATGWSSFYYRFEYWGQGTQVTVSS	low polyreactivity
HVQLVESGGGLVPAGGSLRLSCAASGSTFIGYARGWYRQAPGKERELVAAISWSGGRTYYADSVKGRFTISRDNAKNTVYLQMNSLKPEDTAVYYCNTVPYRISVQFNYWGQGTQVTVSS	high polyreactivity
HVQLVESGGGLVQAGCSLRLSCAASGSIFLRNTMGWYRQAPGKEREFVAAITKRGGTTYYADSVKGRFTMSRDNAKNTVYLQMNSLKPDDTAVYYCAKSYDNEYGYWGQGTQVTVSS	high polyreactivity
HVQLVESGGGLVQAGGILRLSCAASGSTFVKYAMGWYRQATGKERELVAAISSRGGRTYYADSVKGRFTISRDNAKNTVYLQMNSLKPEDTAVYYCNKGTRLDGEYDYWGQGTQVTVSS	high polyreactivity
HVQLVESGGGLVQAGGSLRISCAASGFTFRYYAMGWYRQAAGKEMELVAAITSSGGRTYYADSVKGRFTISRDNAKNTVYLQMNSLKPEDTAVYYCNAAYGYVSRVYYLIEHDYWGHGTQVTVSS	high polyreactivity
HVQLVESGGGLVQAGGSLRLNCAASGSTFKRNAMGWYRQATGKERELVAAISRSGGSTYYADSVKGRFTISRDNAKTTVYLQMNSLNPEDTAVYFCNALRGTASWRGYYWGQGTQVTVSS	high polyreactivity
HVQLVESGGGLVQAGGSLRLRSAASGRIFYYNAMGWYRQAPGKERELVASISWDASSTYYADSVKGLFTISRDNAKNTVYLQMNSLKPEDTAVYYCNKIHLYRQYDYWGQGTQVTVSS	low polyreactivity
HVQLVESGGGLVQAGGSLRLSCAASGFIFPENAMGWYRQAPGKERELVAAIRTGGSTYYADSVKGRFTISRDNAKNTVYLQMNSLKPEDTAVYYCAARFHYEKYSYWYFDEDYWGQGTQVTVSS	high polyreactivity
HVQLVESGGGLVQAGGSLRLSCAASGFIFQYYCMGWYRQATRKERELVAAIDSRGGSTYYADSVKGRFTISRDNAKNTVYLQMNSLNPADTAVYYCAAMGLYQGTLNHFYYWGQGTQVTVSS	low polyreactivity
HVQLVESGGGLVQAGGSLRLSCAASGFTFGWNDMGWYRQAPGKERELVAAITWSGGSTYYADSVKGRFTISRDNAKNTVYLQMNSLKPEDTAVYYCAAVVSDYVWRYEYWGQGTQVTVSS	low polyreactivity
HVQLVESGGGLVQAGGSLRLSCAASGFTFWDYTMGWYRQAPGKERELVAAISSSGGGTYYADSVKGRFTISRDNAKNTVYLQMNSLKPEDTAVDYCNAVRFLDYWYPDTYGDWGQGTQVTLSS	low polyreactivity
HVQLVESGGGLVQAGGSLRLSCAASGGIFRGYTMGWYRQAPGKETEFVAAITYGGGGTYYADSVKGRFTISRDNAKNTVYLQMNSLKPEDTAVYYCNADLSDVAVTDHDYWGQGTQVTVSS	low polyreactivity
HVQLVESGGGLVQAGGSLRLSCAASGGIFSYYAMGWFRQAPGKERELVAAISSRGTNTHYADSVKGRFTISRDNAKNTVDLQMNSLKPEDTAVYYCAADKRASPIYDWGQGTQVTVSS	high polyreactivity
